In publication doi:10.1101/2021.02.05.429969 (bioRxiv, 2021):
Where a chain is given by its changes, count along the chain named. Numbers in names are those of the source.

B1: CagFbFP-Q148N (domain or fragment)
chain: MASGMIVTDAGADQPIVFVNRAFSTITGYAPNEVLGRNARFLQGPQTDAATVARLREAIAAARPIQERILNYRKDGQPFWNQLSISPVRDETGNVVAFVGVNTDVTA
B2: CagFbFP-Q148K (domain or fragment)
chain: B1 chain with N102K
B3: CagFbFP-Q148D (domain or fragment)
chain: B1 chain with N102D
B4: CagFbFP-Q148H (domain or fragment)
chain: B1 chain with N102H
B5: CagFbFP-Q148E (domain or fragment)
chain: B1 chain with N102E
B6: CagFbFP-Q148R (domain or fragment)
chain: B1 chain with N102R

Biological target: the molecule itself
Test: crystal structure

Protein | binding result
B1 | binds
B2 | binds
B3 | binds
B4 | binds
B5 | binds
B6 | binds
